Source: patent US20170058319A1, “NANOSENSOR FOR ASSESSING THROMBIN INHIBITORS” (VIRGINIA COMMONWEALTH UNIVERSITY, priority 2014, published 2017)

Tests used:
[1] = target: Au-TH nanoprobe (gold nanoparticles covalently linked to bovine α-thrombin) (bovine) (UniProt P00735); test: displacement of HirP from the Au-TH nanoprobe by AT at 10 µM, 1 h incubation
[2] = target: Au-TH nanoprobe (gold nanoparticles covalently linked to bovine α-thrombin) (bovine) (UniProt P00735); test: cell-based or functional assay
[3] = target: Au-TH nanoprobe (gold nanoparticles covalently linked to bovine α-thrombin) (bovine) (UniProt P00735); test: displacement of HirP from the Au-TH nanoprobe by AT at 100 µM, 1 h incubation
[4] = target: Au-TH nanoprobe (gold nanoparticles covalently linked to bovine α-thrombin) (bovine) (UniProt P00735); test: displacement of HirP from the Au-TH nanoprobe by AT at 1 µM, 1 h incubation

Chain of Antithrombin (AT) (P01008 33-464): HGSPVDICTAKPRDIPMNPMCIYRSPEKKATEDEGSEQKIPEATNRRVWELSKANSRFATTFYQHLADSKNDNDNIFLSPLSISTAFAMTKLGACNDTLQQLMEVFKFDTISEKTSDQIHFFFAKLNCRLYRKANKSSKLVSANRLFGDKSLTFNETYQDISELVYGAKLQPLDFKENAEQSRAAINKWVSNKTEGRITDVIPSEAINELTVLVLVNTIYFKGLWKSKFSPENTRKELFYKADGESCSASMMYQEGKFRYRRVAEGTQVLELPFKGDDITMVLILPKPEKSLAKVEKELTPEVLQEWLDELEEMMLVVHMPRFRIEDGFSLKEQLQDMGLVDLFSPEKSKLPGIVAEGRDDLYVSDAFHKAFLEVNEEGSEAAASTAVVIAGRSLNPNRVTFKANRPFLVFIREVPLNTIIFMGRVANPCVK

What does the source list for Antithrombin (AT)?
increase in fluorescence at 525 nm [1]: 25%; neutralization of surface bound thrombin (chromogenic substrate hydrolysis) [2]: < 60%; increase in fluorescence at 525 nm [3]: 20%; increase in fluorescence at 525 nm [4]: 40%
